Results as given in patent US20200140532A1.

Legend:
[1] = target: recombinant cynomolgus Aggrecan G1-IGD-G2 (cynomolgus); assay: periplasmic extract ELISA
[2] = target: recombinant cynomolgus Aggrecan G1-IGD-G2 (cynomolgus); assay: SPR (ProteOn), off-rate only indicative
[3] = target: recombinant cynomolgus Aggrecan G1-IGD-G2 (cynomolgus); assay: ELISA on recombinant G1-IGD-G2

Binder	OD 450 nm [1] [OD 450 nm]	koff [2] [s⁻¹]	EC50 [3] [pM]
C0101PMP102G11 (VHH, not shown: large carriers) VHH: EVQLVESGGGLVQAGGSLRLSCAASGRSFSSYAMGWFRQAPGKEREFVSIISWSGGSTVYADSVKGRFTISRDNAKNTVYLQMNSLKPEDTAIYYCAAGRLYRATPRPADFGSWGQGTQVTVSS	0.6	–	–
C0101PMP604G01 (VHH, not shown: large carriers) VHH: DVQLVESGGGLVQPGGSLRLSCAASGRTFSSYTMGWFRQAPGKEREFVAAISWSGRTTYYADSVKGRFTISRDNSKNTVYLQMNSLRPEDTAVYYCAAYRRVRYTNLEVWDYWGQGTLVTVSS	1.25	–	–
C0101PMP604G09 (VHH, not shown: large carriers) VHH: DVQLVESGGGLVQPGGSLRLSCVASGRTFSSYAMGWFRQAPGKEREFVAAITWSSATTYYADSVKGRFTISRDNSKNTVYLQMNSLRPEDTAVYYCAAARIPVGRRSENWDYWGQGTLVTVSS	1.57	–	–
C01010046 (601E08-ALB26) (VHH, not shown: small tags and cut ends) VHH: DVQLVESGGGLVQPGGSLRLSCTASGRTFSSYAVGWFRQAPGKEREFVAAISRSGRSTYYADSVKGRFTISRDNSKNTVYLQMNSLRPEDTAVYYCAAGLSYYSPHAYYDYWGQGTLVTVSS	–	0.0031	6800
C0101PMP601E08 (VHH, not shown: large carriers) VHH: DVQLVESGGGLVQPGGSLRLSCTASGRTFSSYAVGWFRQAPGKEREFVAAISRSGRSTYYADSVKGRFTISRDNSKNTVYLQMNSLRPEDTAVYYCAAGLSYYSPHAYYDYWGQGTLVTVSS	1.32	–	–
C0101PMP112A01 (VHH, not shown: large carriers) VHH: EVQLVESGGGLVQTGGSLRLSCVASGRAFSNYIMGWFRQAPGKERDFVAAINWNGVTTHYTDSVKGRFTISRDNAKSTSYLQMDSLKPDDTAVYFCAARGTVYSRTYGVSEEGYMYWGQGTQVTVSS	2.5	–	–
C0101PMP115B08 (VHH, not shown: large carriers) VHH: KVQLVESGGGLVQPGGSLRLSCAASGFTFSMYAMKWVRQAPGKGLEWVSGINSSGGRTNYAGSVKGRFTISRDNAKNTLYLQMNSLKPEDTAVYYCATDFLGGRNSRGQGTQVTVSS	1.18	–	–
C0101PMP606A05 (VHH, not shown: large carriers) VHH: DVQLVESGGGLVQPGGSLRLSCVASGRTFSIYTMGWFRQAPGKEREFVAAISWSGGRTYYADSVKGRFTISRDNSKNTVYLQMNSLRPEDTAVYYCTAYTGRSYGSYDYWGQGTLVTVSS	1.24	–	–
C0101PMP117G09 (VHH, not shown: large carriers) VHH: EVQLVESGGGSALPGGSLRLSCAASGITFSSRYMRWYRQAPGRQRELVAAISSGGRTDYVDSVRGRFTLSINNAKNTVYLQMNDLKPEDTAVYYCYRPRMYVDGTYEKELWGQGTLVTVSS	2.21	–	–
C0101PMP117D05 (VHH, not shown: large carriers) VHH: KVQLVESGGGLVQAGGSLRLSCAASRRTFNMMGWFRQAPGKEREFVAYITWNGGDTRYAESVKGRFTVSRDDVKNTMALQMNRLDPLDTAVYYCGVRIHGSNWSTKADDYDNWGQGTQVTVSS	2.12	–	–
C01010094 (604F02-ALB26) (VHH, not shown: small tags and cut ends) VHH: DVQLVESGGGLVQPGGSLRLSCAASGRTFSSYTMGWFRQAPGKEREFVAAISWSGGRTYYADSVKGRFTISRDNSKNTVYLQMNSLRPEDTAVYYCAAYRRRRASSNRGLWDYWGQGTLVTVSS	–	0.15	2200
C01010106 (ALB26-604F02-604F02) (VHH, not shown: large carriers; small tags and cut ends) VHH 1: DVQLVESGGGLVQPGGSLRLSCAASGRTFSSYTMGWFRQAPGKEREFVAAISWSGGRTYYADSVKGRFTISRDNSKNTVYLQMNSLRPEDTAVYYCAAYRRRRASSNRGLWDYWGQGTLVTVSS VHH 2: DVQLVESGGGLVQPGGSLRLSCAASGRTFSSYTMGWFRQAPGKEREFVAAISWSGGRTYYADSVKGRFTISRDNSKNTVYLQMNSLRPEDTAVYYCAAYRRRRASSNRGLWDYWGQGTLVTVSS	–	–	68
C0101PMP604F02 (VHH, not shown: large carriers) VHH: DVQLVESGGGLVQPGGSLRLSCAASGRTFSSYTMGWFRQAPGKEREFVAAISWSGGRTYYADSVKGRFTISRDNSKNTVYLQMNSLRPEDTAVYYCAAYRRRRASSNRGLWDYWGQGTLVTVSS	1.37	–	–
C01010097 (608A05-ALB26) (VHH, not shown: small tags and cut ends) VHH: DVQLVESGGGLVQPGGSLRLSCAASGRTFSTYTMGWFRQAPGKEREFVAAISWSGGTTYYADSVKGRFTISRDNSKNTVYLQMNSLRPEDTAVYYCAARPRYYYYSLYSYDYWGQGTLVTVSS	–	0.0018	210
C01010109 (ALB26-608A05-608A05) (VHH, not shown: small tags and cut ends) VHH 1: DVQLVESGGGLVQPGGSLRLSCAASGRTFSTYTMGWFRQAPGKEREFVAAISWSGGTTYYADSVKGRFTISRDNSKNTVYLQMNSLRPEDTAVYYCAARPRYYYYSLYSYDYWGQGTLVTVSS VHH 2: DVQLVESGGGLVQPGGSLRLSCAASGRTFSTYTMGWFRQAPGKEREFVAAISWSGGTTYYADSVKGRFTISRDNSKNTVYLQMNSLRPEDTAVYYCAARPRYYYYSLYSYDYWGQGTLVTVSS	–	–	91
C0101PMP608A05 (VHH, not shown: large carriers) VHH: DVQLVESGGGLVQPGGSLRLSCAASGRTFSTYTMGWFRQAPGKEREFVAAISWSGGTTYYADSVKGRFTISRDNSKNTVYLQMNSLRPEDTAVYYCAARPRYYYYSLYSYDYWGQGTLVTVSS	2.48	–	–
C01010060 (606A07-ALB26) (VHH, not shown: small tags and cut ends) VHH: DVQLVESGGGLVQPGGSLRLSCVASGRTFSIYGMGWFRQAPGKEREFVAAINGGSRTYYADSVKGRFTISRDNSKNTVYLQMNSLRPEDTAVYYCAADRSGYGTSLDWWYDYWGQGTLVTVSS	–	0.02	5400
C01010113 (ALB26-606A07-606A07) (VHH, not shown: small tags and cut ends) VHH 1: DVQLVESGGGLVQPGGSLRLSCVASGRTFSIYGMGWFRQAPGKEREFVAAINGGSRTYYADSVKGRFTISRDNSKNTVYLQMNSLRPEDTAVYYCAADRSGYGTSLDWWYDYWGQGTLVTVSS VHH 2: DVQLVESGGGLVQPGGSLRLSCVASGRTFSIYGMGWFRQAPGKEREFVAAINGGSRTYYADSVKGRFTISRDNSKNTVYLQMNSLRPEDTAVYYCAADRSGYGTSLDWWYDYWGQGTLVTVSS	–	–	300
C0101PMP606A07 (VHH, not shown: large carriers) VHH: DVQLVESGGGLVQPGGSLRLSCVASGRTFSIYGMGWFRQAPGKEREFVAAINGGSRTYYADSVKGRFTISRDNSKNTVYLQMNSLRPEDTAVYYCAADRSGYGTSLDWWYDYWGQGTLVTVSS	2.41	–	–
C0101PMP604B05 (VHH, not shown: large carriers) VHH: DVQLVESGGGLVQPGGSLRLSCVASGRTFSIYTMAWFRQAPGKEREFVAAISWSSGRTYYADSVKGRFTISRDNSKNTVYLQMNSLRPEDTAVYYCTAYTGPRSGYDYWGQGTLVTVSS	2.04	–	–
C0101PMP113A01 (VHH, not shown: large carriers) VHH: EVQLVESGGGLVQPGGSLRLSCSASGFTFSGSWMFWVRQAPGKDYEWVASINSSGGRTYYDDSVKGRFTISRDSAKNTLYLEMNNLKPEDTALYFCARSPRVGSWGQGTQVTVSS	2.57	–	–
C01010054 (114F08-ALB26) (VHH, not shown: small tags and cut ends) VHH: EVQLVESGGGLVQAGGSLRLSCAASGSTFIINVVRWYRRTPGKQRELVATISSGGNANYVDSVRGRFSISRDGAKNAVDLQMNGLKPEDTAVYYCNVPTTHYGGVYYGPYWGQGTQVTVSS	–	0.0069	4400
C01010118 (ALB26-114F08-114F08) (VHH, not shown: small tags and cut ends) VHH 1: EVQLVESGGGLVQAGGSLRLSCAASGSTFIINVVRWYRRTPGKQRELVATISSGGNANYVDSVRGRFSISRDGAKNAVDLQMNGLKPEDTAVYYCNVPTTHYGGVYYGPYWGQGTQVTVSS VHH 2: EVQLVESGGGLVQAGGSLRLSCAASGSTFIINVVRWYRRTPGKQRELVATISSGGNANYVDSVRGRFSISRDGAKNAVDLQMNGLKPEDTAVYYCNVPTTHYGGVYYGPYWGQGTQVTVSS	–	–	76
C0101PMP114F08 (VHH, not shown: large carriers) VHH: EVQLVESGGGLVQAGGSLRLSCAASGSTFIINVVRWYRRTPGKQRELVATISSGGNANYVDSVRGRFSISRDGAKNAVDLQMNGLKPEDTAVYYCNVPTTHYGGVYYGPYWGQGTQVTVSS	2.32	–	–
C0101PMP112A03 (VHH, not shown: large carriers) VHH: EVQLVESGGGLVQPGGSLRLSCAASGSIFSNRFMYWYRQAPGKQRELVASITLSGSTNYADSVKGRFTISRDNAKNTVYLQMNSLKPEDTAVYYCNTFLQNSFYWGQGTQVTVSS	2.36	–	–
C0101PMP609C09 (VHH, not shown: large carriers) VHH: DVQLVESGGGLVQPGGSLRLSCAASGTIFSINVMGWYRQAPGKEREFVAAITTGGRTNYADSVKGRFTISRDNSKNTVYLQMNSLRPEDTAVYYCNAEVTTGWVGYSWYDYWGQGTMVTVSS	1.83	–	–
